Results on one molecule are retold here after paper PMC10790703 (mBio, 2023).

This assay concerns the target T1, ubiquitin E3 ligase TRIM59 (human (endogenous in 293T), UniProt Q8IWR1 1-403).
T1 construct: TRIM59, ubiquitin E3 ligase primarily located in the ER, in 293T cells
T1 sequence (looked up): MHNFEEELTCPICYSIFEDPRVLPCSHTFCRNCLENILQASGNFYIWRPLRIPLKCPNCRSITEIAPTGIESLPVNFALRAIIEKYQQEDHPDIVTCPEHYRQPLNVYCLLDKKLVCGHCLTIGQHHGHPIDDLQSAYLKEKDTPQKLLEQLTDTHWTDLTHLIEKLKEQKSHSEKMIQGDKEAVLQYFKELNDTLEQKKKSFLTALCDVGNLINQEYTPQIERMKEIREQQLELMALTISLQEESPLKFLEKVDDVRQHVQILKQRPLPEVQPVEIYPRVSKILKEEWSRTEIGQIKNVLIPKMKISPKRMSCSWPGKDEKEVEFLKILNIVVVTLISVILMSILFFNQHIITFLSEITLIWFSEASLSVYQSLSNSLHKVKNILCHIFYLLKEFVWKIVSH
Put plainly: co-IP. The settings on record: partners not purified.

B1: SARS-CoV-2 ORF3a dG188 mutant, HA-tagged (natural protein)
chain: MDLFMRIFTIGTVTLKQGEIKDATPSDFVRATATIPIQASLPFGWLIVGVALLAVFQSASKIITLKKRWQLALSKGVHFVCNLLLLFVTVYSHLLLVAAGLEAPFLYLYALVYFLQSINFVRIIMRLWLCWKCRSKNPLLYDANYFLCWHTNCYDYCIPYNSVTSSIVITSGDGTTSPISEHDYQIGYTEKWESGVKDCVVLHSYFTSDYYQLYSTQLSTDTGVEHVTFFIYNKIVDEPEEHVQIHTIDGSSGVVNPVMEPIYDEPTTTTSVPL
notes: also called G188 deletion mutant; E-ORF3a (represented by the dG188 mutant); not shown: HA, C-terminal, kept
In the case of B1, the “fold of pulled-down ORF3a against WT ORF3a (densitometry)” value is around 1.5 fold.
